± gives the uncertainty stated by the source.
Assay: amyloid nucleation score (Sup35N fusion, yeast selection) (log enrichment); library NNK1; higher = more nucleation; inactive = no reads after selection
Outline: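 Growth for 7 days at 30°C on medium lacking adenine and uracil followed a 24-hour induction with 100 μM copper sulfate of psi-negative yeast expressing peptides of 20 random codons fused to Sup35N. Input and output plasmid inserts were sequenced with Illumina, and sequences with under 100 input reads were excluded. Nucleation score is the DiMSum log enrichment of output over input reads, centred on the mode score of non-aggregating sequences.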

| Substance | amyloid nucleation score |
| --- | --- |
| ASNYGQWSCHPGRSLFVQFF | 4.56 ± 0.11 |
| FQGVGDIGSVLHAMFLCYGS | 2.94 ± 0.15 |
| SSTAEDTMWARGSNKTLYQS | 0.148 ± 0.44 |
| MTWNNWCSMRLACIS | 3.9 ± 0.074 |
| WCSKYCMMPSFPTMSRPVPL | -0.426 ± 0.44 |
| ILIAIMNFARSEVVTNGHIR | 2.13 ± 0.41 |
| LDTYRVNWMMRLATYNMMVM | 0.312 ± 0.4 |
| DYLLFSVQGNYESWYNGCKF | -2.05 ± 2.4 |
| DVFIGMMLRACNVLHSGWFS | 0.18 ± 0.23 |
| SRPDTQPEEAQ | -0.02 ± 0.21 |
| QGSPARMCVL | 0.629 ± 1 |
| IILYVLANFIMWWREVFNPK | 0.218 ± 0.48 |
| PSRVKLKISKLL | -0.647 ± 0.94 |
| PQVGRAYNGGAGFLKYSTWD | 0.229 ± 0.51 |
| AILVHCSVLTVA | 0.584 ± 0.66 |
| YPGEGEPKKYLPYNRLCWRS | 1.08 ± 0.69 |
| CGIDKSDRIMLIKTVQLSVQ | 0.09 ± 0.68 |
| ALLGFRSCMQASFFFFRWFI | -0.801 ± 0.89 |
| TVASRFEFYTKDWAYRNGRL | 1.76 ± 0.33 |
| CNMVLFRVKYY | 2.67 ± 0.1 |
| SHNGCKIWGMDNLIVH | -0.616 ± 0.46 |
| PGSCFVMCCDLDKRKGSADE | -0.559 ± 0.62 |
| TCDFAAWICFYISLWVRVKI | -0.382 ± 0.61 |

| Substance | amyloid nucleation score |
| --- | --- |
| RMLLRFYIATGYLWSIQNCR | inactive |
| PTYIKLILTAHYLSEFRSNV | 1.02 ± 0.17 |
| VYQVNVGCWSCGCRTVICNR | 7.932 ± 0.045 |
| LNTVSEITVVAKLNF | 2.3 ± 0.12 |
| YSGVLFSTAVEYGGRGLVHE | inactive |
| CAVTDVRIIIHF | 2.15 ± 0.22 |
| NNACMSSYVVGYRSIVMVK | 0.558 ± 1.1 |
| IQFPRLGGDTTVCDYGHVAI | 1.32 ± 0.49 |
| CILGWKYLDVVYDQRRLRCG | 0.939 ± 0.46 |
| LNNYNGVTVGWGNSWYLYLG | -0.116 ± 0.45 |
| NEVMRFLSTCCMWIIHTSKV | inactive |
| WISEYGWFRIKFAWAAYGYR | -0.023 ± 0.72 |
| VMLMCYPLTRPRCGTERNMF | 0.091 ± 0.49 |
| CTTNIPAKLHLNSVVRVVRA | -1.27 ± 2.7 |
| VYGMITIDNRQVRVVLGFRS | -0.549 ± 0.71 |
| LKISWR | 0.724 ± 0.36 |
| YLDGVIWFLK | -0.591 ± 0.31 |
| KFRSKLWNYFFACVEPATHP | -0.013 ± 0.72 |
| FRGWV | 1.62 ± 0.12 |
| RANSYGGMSNVLW | 0.281 ± 0.28 |
| SFCMMLVSLVFSSKKISHHA | 0.877 ± 0.49 |
| QLFMHPRGIMKGLF | 0.581 ± 0.52 |
| PFLQQNKIFNGLYEMTNWVA | inactive |

| Substance | amyloid nucleation score |
| --- | --- |
| FTVGYGSYGLT | 0.306 ± 0.54 |
| WMDTLVSIGRGGMLRVSCSG | 0.519 ± 0.49 |
| SLVSPRCSKMMFWGLPGVMM | 0.088 ± 0.29 |
| QEDRGPLLHFRLNSYNVMTQ | 0.471 ± 0.62 |
| EFDTQSCQVDTVAVYIEPSL | 0.793 ± 0.65 |
| GISFWSLGC | 1.07 ± 0.84 |
| RLYTFVLPRFILLEKRHSTN | 0.255 ± 0.32 |
| IFCVMVLSWSAVDPALSVA | -1.03 ± 0.81 |
| VFSFYNRNLLILNISLYGYC | 5.89 ± 0.085 |
| HSFSFCCSSYSCNLVGIELN | 7.599 ± 0.043 |
| VRFFM | -0.422 ± 0.45 |
| PRDASWRTFVAKA | -0.026 ± 1.7 |
| RFYKCVLDVNTHLV | 0.883 ± 0.6 |
| KWTGRGSYNDRLFVRRRMF | -0.073 ± 0.47 |
| FFGLFQLETWA | 0.02 ± 0.37 |
| LCAFLPVRTVKLCAFRIFDR | -1.06 ± 0.85 |
| IHRLSARCRLNI | 0.657 ± 0.42 |
| PANIVAFGGLMSIPLVLPVL | -0.104 ± 0.4 |
| HTCGIDGLNKRMT | -0.791 ± 1.6 |
| YGYRSRSLSFCLD | inactive |
| AYSCDLVELRVCAVSVWEEW | 1.42 ± 0.41 |
| IASLRIIDSIQFISVNSCYG | 0.356 ± 0.4 |
| AVNYIADFGTVDRCCITFPL | 0.645 ± 0.4 |
